Measurements taken from IntAct's records for PubMed 32439656.

B1: ER membrane protein complex subunit 6 (Homo sapiens), Q9BV81 (parent)
chain: MAAVVAKREGPPFISEAAVRGNAAVLDYCRTSVSALSGATAGILGLTGLYGFIFYLLASVLLSLLLILKAGRRWNKYFKSRRPLFTGGLIGGLFTYVLFWTFLYGMVHVY
partner: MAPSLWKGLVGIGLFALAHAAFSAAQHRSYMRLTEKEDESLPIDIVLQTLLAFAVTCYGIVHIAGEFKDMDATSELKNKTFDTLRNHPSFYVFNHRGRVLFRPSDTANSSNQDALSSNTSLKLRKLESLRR
B2: ER membrane protein complex subunit 2 (Homo sapiens), Q15006 (parent)
chain: MAKVSELYDVTWEEMRDKMRKWREENSRNSEQIVEVGEELINEYASKLGDDIWIIYEQVMIAALDYGRDDLALFCLQELRRQFPGSHRVKRLTGMRFEAMERYDDAIQLYDRILQEDPTNTAARKRKIAIRKAQGKNVEAIRELNEYLEQFVGDQEAWHELAELYINEHDYAKAAFCLEELMMTNPHNHLYCQQYAEVKYTQGGLENLELSRKYFAQALKLNNRNMRALFGLYMSASHIASNPKASAKTKKDNMKYASWAASQINRAYQFAGRSKKETKYSLKAVEDMLETLQITQS
partner: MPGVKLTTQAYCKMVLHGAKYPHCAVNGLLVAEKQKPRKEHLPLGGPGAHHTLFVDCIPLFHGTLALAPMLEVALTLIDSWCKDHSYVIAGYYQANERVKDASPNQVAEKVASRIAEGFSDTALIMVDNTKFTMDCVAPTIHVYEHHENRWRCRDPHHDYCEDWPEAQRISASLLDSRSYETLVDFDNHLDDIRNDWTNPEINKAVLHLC
B3: ER membrane protein complex subunit 2 (Homo sapiens), Q15006 (parent)
chain: B2 chain
partner: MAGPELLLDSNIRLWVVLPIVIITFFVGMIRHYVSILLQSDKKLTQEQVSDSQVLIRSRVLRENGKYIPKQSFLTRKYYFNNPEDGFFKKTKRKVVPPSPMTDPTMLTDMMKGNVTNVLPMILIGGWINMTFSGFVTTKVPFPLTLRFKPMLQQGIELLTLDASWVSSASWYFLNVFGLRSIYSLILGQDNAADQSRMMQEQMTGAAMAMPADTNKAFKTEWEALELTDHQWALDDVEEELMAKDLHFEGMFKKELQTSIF
B4: ER membrane protein complex subunit 2 (Homo sapiens), Q15006 (parent)
chain: B2 chain
partner: B1 partner

Variants of: B1
Settings: with emc5_human MMGT1, Q8N4V1

Effect of a mutation on the interaction, with no effect:
MAAVVAKREGPPFISEAAVRGNAAVLDYCRTSKSAKSGATAGILGLTGLYGFIFYLLASVLLSLLLILKAGRRWNKYFKSRRPLFTGGLIGGLFTYVLFWTFLYGMVHVY [V33K;L36K]
MAAVVAKREGPPFISEAAVRGNAAVLDYCRTSVSALSGATAGILYLTALYGFIFYLLASVLLSLLLILKAGRRWNKYFKSRRPLFTGGLIGGLFTYVLFWTFLYGMVHVY [G45Y;G48A]

Variants of: B2
Settings: with emc8_human EMC8, O43402

Effect of a mutation on the interaction, disrupting interaction strength:
MAKVSELYDVTWEEMRDKMRKWREENSRNSEQIVEVGEELINEYASKLGDDIWIIYEQVMIAALDYGRDDLALFCLQELRRQFPGSHRVKRLTGMRFEAMERYDDAIQLYDRILQEDPTNTAARKRKIAIRKAQGKNVEAIRELNEYLEQFVGDQEAWHELAELYINEHDYAKAAFCLEELMMTNPHNHLYCQQYAEVKATQGGLENLELSRKYFAQALKLNNRNMRALFGLYMSASHIASNPKASAKTKKDNMKYASWAASQINRAYQFAGRSKKETKYSLKAVEDMLETLQITQS [Y200A]
MAKVSELYDVTWEEMRDKMRKWREENSRNSEQIVEVGEELINEYASKLGDDIWIIYEQVMIAALDYGRDDLALFCLQELRRQFPGSHRVKRLTGMRFEAMERYDDAIQLYDRILQEDPTNTAARKRKIAIRKAQGKNVEAIRELNEYLEQFVGDQEAWHELAELYINEHDYAKAAFCLEELMMTNPHNHLYCQQYAEVKYTQGGLENLELSRKYFAQALKLNNRNMAALFGLYMSASHIASNPKASAKTKKDNMKYASWAASQINRAYQFAGRSKKETKYSLKAVEDMLETLQITQS [R227A]

Effect of a mutation on the interaction, with no effect:
MAKVSELYDVTWEEMRDKMRKWREENSANSEQIVEVGEELINEYASKLGDDIWIIYEQVMIAALDYGRDDLALFCLQELRRQFPGSHRVKRLTGMRFEAMERYDDAIQLYDRILQEDPTNTAARKRKIAIRKAQGKNVEAIRELNEYLEQFVGDQEAWHELAELYINEHDYAKAAFCLEELMMTNPHNHLYCQQYAEVKYTQGGLENLELSRKYFAQALKLNNRNMRALFGLYMSASHIASNPKASAKTKKDNMKYASWAASQINRAYQFAGRSKKETKYSLKAVEDMLETLQITQS [R28A]
MAKVSELYDVTWEEMRDKMRKWREENSRNSEQIVEVGEELINEYASKLGDDIWIIYEQVMIAALDYGRDDLALFCLQELRRQFPGSHRVKRLTGMRFEAMERYDDAIQLYDRILQEDPTNTAARKRKIAIRKAQGKNVEAIRELNEYLEQFVGDQAAWHELAELYINEHDYAKAAFCLEELMMTNPHNHLYCQQYAEVKYTQGGLENLELSRKYFAQALKLNNRNMRALFGLYMSASHIASNPKASAKTKKDNMKYASWAASQINRAYQFAGRSKKETKYSLKAVEDMLETLQITQS [E156A]
MAKVSELYDVTWEEMRDKMRKWREENSRNSEQIVEVGEELINEYASKLGDDIWIIYEQVMIAALDYGRDDLALFCLQELRRQFPGSHRVKRLTGMRFEAMERYDDAIQLYDRILQEDPTNTAARKRKIAIRKAQGKNVEAIRELNEYLEQFVGDQEAWHALAELYINEHDYAKAAFCLEELMMTNPHNHLYCQQYAEVKYTQGGLENLELSRKYFAQALKLNNRNMRALFGLYMSASHIASNPKASAKTKKDNMKYASWAASQINRAYQFAGRSKKETKYSLKAVEDMLETLQITQS [E160A]
MAKVSELYDVTWEEMRDKMRKWREENSRNSEQIVEVGEELINEYASKLGDDIWIIYEQVMIAALDYGRDDLALFCLQELRRQFPGSHRVKRLTGMRFEAMERYDDAIQLYDRILQEDPTNTAARKRKIAIRKAQGKNVEAIRELNEYLEQFVGDQEAWHELAELYINEHDAAKAAFCLEELMMTNPHNHLYCQQYAEVKYTQGGLENLELSRKYFAQALKLNNRNMRALFGLYMSASHIASNPKASAKTKKDNMKYASWAASQINRAYQFAGRSKKETKYSLKAVEDMLETLQITQS [Y171A]
MAKVSELYDVTWEEMRDKMRKWREENSRNSEQIVEVGEELINEYASKLGDDIWIIYEQVMIAALDYGRDDLALFCLQELRRQFPGSHRVKRLTGMRFEAMERYDDAIQLYDRILQEDPTNTAARKRKIAIRKAQGKNVEAIRELNEYLEQFVGDQEAWHELAELYINEHDYAKAAFCLEALMMTNPHNHLYCQQYAEVKYTQGGLENLELSRKYFAQALKLNNRNMRALFGLYMSASHIASNPKASAKTKKDNMKYASWAASQINRAYQFAGRSKKETKYSLKAVEDMLETLQITQS [E180A]
MAKVSELYDVTWEEMRDKMRKWREENSRNSEQIVEVGEELINEYASKLGDDIWIIYEQVMIAALDYGRDDLALFCLQELRRQFPGSHRVKRLTGMRFEAMERYDDAIQLYDRILQEDPTNTAARKRKIAIRKAQGKNVEAIRELNEYLEQFVGDQEAWHELAELYINEHDYAKAAFCLEELMMTNPHNHLYCQQYAEVKYTQGGLENLELSRKYFAQALKLNNRNMRALFGLYMSASHIASNPKASAKTKKDNMKYASAAASQINRAYQFAGRSKKETKYSLKAVEDMLETLQITQS [W259A]

Variants of: B3
Settings: with emc3_human EMC3, Q9P0I2

Effect of a mutation on the interaction, disrupting interaction strength:
MAKVSELYDVTWEEMRDKMRKWREENSRNSEQIVEVGEELINEYASKLGDDIWIIYEQVMIAALDYGRDDLALFCLQELRRQFPGSHRVKRLTGMRFEAMERYDDAIQLYDRILQEDPTNTAARKRKIAIRKAQGKNVEAIRELNEYLEQFVGDQEAWHELAELYINEHDYAKAAFCLEALMMTNPHNHLYCQQYAEVKYTQGGLENLELSRKYFAQALKLNNRNMRALFGLYMSASHIASNPKASAKTKKDNMKYASWAASQINRAYQFAGRSKKETKYSLKAVEDMLETLQITQS [E180A]
MAKVSELYDVTWEEMRDKMRKWREENSRNSEQIVEVGEELINEYASKLGDDIWIIYEQVMIAALDYGRDDLALFCLQELRRQFPGSHRVKRLTGMRFEAMERYDDAIQLYDRILQEDPTNTAARKRKIAIRKAQGKNVEAIRELNEYLEQFVGDQEAWHELAELYINEHDYAKAAFCLEELMMTNPHNHLYCQQYAEVKYTQGGLENLELSRKYFAQALKLNNRNMAALFGLYMSASHIASNPKASAKTKKDNMKYASWAASQINRAYQFAGRSKKETKYSLKAVEDMLETLQITQS [R227A]
MAKVSELYDVTWEEMRDKMRKWREENSRNSEQIVEVGEELINEYASKLGDDIWIIYEQVMIAALDYGRDDLALFCLQELRRQFPGSHRVKRLTGMRFEAMERYDDAIQLYDRILQEDPTNTAARKRKIAIRKAQGKNVEAIRELNEYLEQFVGDQEAWHELAELYINEHDYAKAAFCLEELMMTNPHNHLYCQQYAEVKYTQGGLENLELSRKYFAQALKLNNRNMRALFGLYMSASHIASNPKASAKTKKDNMKYASAAASQINRAYQFAGRSKKETKYSLKAVEDMLETLQITQS [W259A]

Effect of a mutation on the interaction, with no effect:
MAKVSELYDVTWEEMRDKMRKWREENSANSEQIVEVGEELINEYASKLGDDIWIIYEQVMIAALDYGRDDLALFCLQELRRQFPGSHRVKRLTGMRFEAMERYDDAIQLYDRILQEDPTNTAARKRKIAIRKAQGKNVEAIRELNEYLEQFVGDQEAWHELAELYINEHDYAKAAFCLEELMMTNPHNHLYCQQYAEVKYTQGGLENLELSRKYFAQALKLNNRNMRALFGLYMSASHIASNPKASAKTKKDNMKYASWAASQINRAYQFAGRSKKETKYSLKAVEDMLETLQITQS [R28A]
MAKVSELYDVTWEEMRDKMRKWREENSRNSEQIVEVGEELINEYASKLGDDIWIIYEQVMIAALDYGRDDLALFCLQELRRQFPGSHRVKRLTGMRFEAMERYDDAIQLYDRILQEDPTNTAARKRKIAIRKAQGKNVEAIRELNEYLEQFVGDQAAWHELAELYINEHDYAKAAFCLEELMMTNPHNHLYCQQYAEVKYTQGGLENLELSRKYFAQALKLNNRNMRALFGLYMSASHIASNPKASAKTKKDNMKYASWAASQINRAYQFAGRSKKETKYSLKAVEDMLETLQITQS [E156A]
MAKVSELYDVTWEEMRDKMRKWREENSRNSEQIVEVGEELINEYASKLGDDIWIIYEQVMIAALDYGRDDLALFCLQELRRQFPGSHRVKRLTGMRFEAMERYDDAIQLYDRILQEDPTNTAARKRKIAIRKAQGKNVEAIRELNEYLEQFVGDQEAWHALAELYINEHDYAKAAFCLEELMMTNPHNHLYCQQYAEVKYTQGGLENLELSRKYFAQALKLNNRNMRALFGLYMSASHIASNPKASAKTKKDNMKYASWAASQINRAYQFAGRSKKETKYSLKAVEDMLETLQITQS [E160A]
MAKVSELYDVTWEEMRDKMRKWREENSRNSEQIVEVGEELINEYASKLGDDIWIIYEQVMIAALDYGRDDLALFCLQELRRQFPGSHRVKRLTGMRFEAMERYDDAIQLYDRILQEDPTNTAARKRKIAIRKAQGKNVEAIRELNEYLEQFVGDQEAWHELAELYINEHDAAKAAFCLEELMMTNPHNHLYCQQYAEVKYTQGGLENLELSRKYFAQALKLNNRNMRALFGLYMSASHIASNPKASAKTKKDNMKYASWAASQINRAYQFAGRSKKETKYSLKAVEDMLETLQITQS [Y171A]
MAKVSELYDVTWEEMRDKMRKWREENSRNSEQIVEVGEELINEYASKLGDDIWIIYEQVMIAALDYGRDDLALFCLQELRRQFPGSHRVKRLTGMRFEAMERYDDAIQLYDRILQEDPTNTAARKRKIAIRKAQGKNVEAIRELNEYLEQFVGDQEAWHELAELYINEHDYAKAAFCLEELMMTNPHNHLYCQQYAEVKATQGGLENLELSRKYFAQALKLNNRNMRALFGLYMSASHIASNPKASAKTKKDNMKYASWAASQINRAYQFAGRSKKETKYSLKAVEDMLETLQITQS [Y200A]

Variants of: B4
Settings: with emc5_human MMGT1, Q8N4V1

Effect of a mutation on the interaction, disrupting interaction strength:
MAKVSELYDVTWEEMRDKMRKWREENSANSEQIVEVGEELINEYASKLGDDIWIIYEQVMIAALDYGRDDLALFCLQELRRQFPGSHRVKRLTGMRFEAMERYDDAIQLYDRILQEDPTNTAARKRKIAIRKAQGKNVEAIRELNEYLEQFVGDQEAWHELAELYINEHDYAKAAFCLEELMMTNPHNHLYCQQYAEVKYTQGGLENLELSRKYFAQALKLNNRNMRALFGLYMSASHIASNPKASAKTKKDNMKYASWAASQINRAYQFAGRSKKETKYSLKAVEDMLETLQITQS [R28A]
MAKVSELYDVTWEEMRDKMRKWREENSRNSEQIVEVGEELINEYASKLGDDIWIIYEQVMIAALDYGRDDLALFCLQELRRQFPGSHRVKRLTGMRFEAMERYDDAIQLYDRILQEDPTNTAARKRKIAIRKAQGKNVEAIRELNEYLEQFVGDQAAWHELAELYINEHDYAKAAFCLEELMMTNPHNHLYCQQYAEVKYTQGGLENLELSRKYFAQALKLNNRNMRALFGLYMSASHIASNPKASAKTKKDNMKYASWAASQINRAYQFAGRSKKETKYSLKAVEDMLETLQITQS [E156A]
